The source of these data is patent publication WO1995025167A1.

Experiment [1] has as its target EGFR on EGFR-bearing tumor cells (human) (UniProt P00533). As to the kind of experiment: flow cytometry, crude bacterial supernatant on HT29 cells, positive control.
The target is the same in experiment [2]. As to the kind of experiment: flow cytometry, crude bacterial supernatant on A431 cells, positive control.
Experiment [3] has the same target. The experiment is described as follows: flow cytometry, crude bacterial supernatant on MDA MB 231 cells, positive control.

Regarding scFv derived from MAb 425, the mean fluorescence (cytometric analysis) (arbitrary fluorescence units) in experiment [1] was determined as 2.5; in experiment [2], 85.5; in experiment [3] it was 21.3.
